Assay results from patent publication US20160053277A1, “Compositions Having Dicamba Decarboxylase Activity and Methods of Use” (PIONEER HI-BRED INTERNATIONAL, INC., priority 2013, published 2016).

B1: 93 (protein, listed as Mucilaginibacter paludis)
chain: MAKYGKHITINKNMRIVTLEEHISFPEMADQIPKAALGSFGRSEAMQRIAPKLADITGERLKSMDANGISMQVLSVDSSGVNLLSPQQGPAFATQYNDLIANRIAGFEKRFTAFAHLPMTAPFAAADELERAVKEHHFCGAMIRGLTGDQFLDHPQFAPIFERAQKLDVPIYLHPGLPPKGVADIYYSGLPNYSGMAEALACYGWGWHSETALHVLRLLFSGIFDQYPKLKLVIGHMGEMLPMMMARSEKAFKPGNGGANVRTLTDTFRSQVYLTTSGFFTQPPLKIALDTFGIDHVMFSVDYPFSTNEMGIEFLNEIDLPDEEVARIAHGNADKLLNLKA
B2: 6 (protein)
chain: MAEILSPEESIYYSKLSNDILAEGIKKNPTRFRGFAALPTPDPIQAAMELERCIKLGGFVGAIINGHINGHYLDEIQFDPILEAADALDVPLYIHPAVPPKAIIDTYYKMNDTYAQTVMVSGGWGWHIETGVHVLRLISSGVFDRHPNLKIVIGHLGEGLPFFMHRLNNAIGGNLKKSYSTYLKENIYYTISGFNDPDLFQFVLKKVGENNIMFSSDYPFNFPKREVELFNELNISEEVREKISFKNAERILKI
modifications: Treponema brennaborense
B3: 98 (protein)
chain: MAIIDCHGHYTTAPAAHDAFRKAQIAHHDDPQQPAPQYPHISDDALRESIEQHQLRLLRERGADMTIFSPRASTMAHHIGNEAVSQVWTQRCNDLIARVVQLYPHTFIGVCQLPQSPGVPISHSIAELERCVNELGFVGCNLNPDPSGGHWNGVPLTDRAWYPFFEKMVELDVPAMVHVSGSCNANFHATGAHYLNADTTAFMQFLEGDLFRDFPSLRFIIPHGGGAVPYHWGRFRGLADMLGKPPLATHVMRNVFFDTCVYHQPGIDLLFEVIDIDNILFGSEMVGAVRGIDPQTGHYFDDTKRYIDALTISDADKRKVFEGNARRVYPRLDAQLRARGL
modifications: Xanthomonas campestris pv.
B4: 90 (protein)
chain: MAATIDRVLYLGNATQRRYTSATVSVPRIFGKVALEEHVGTSIWAKYNLTPPANAVVGVLNRPPTLPNTLDTIARLDDINGRLSSMNHSGIGYVIVSLSSPGIQGVHDTALAIKFSTDINDELYLKYANAYPDKFAFFATVPMQDPVAAASELERAVSLLGAKGAAINGYTDIGPPGNSTTRYLDDPINAPFWSKVAALNVPIYLHPRAPPPSQQLVYNYPNNSLSAYPGLVTGGFAYGAETAVHALRLMLSGLFDTHPNIQIILGHAAEGLPFLIHRSDTQLAAEVPGTNGPYKRPLRYYLRNNFYATLSGVRRLSTTQCTLAEMGEERVLFSVDYPFQSNEDAADWFDGVEGMSVETKRKVARGNARRLFNLTVDLDERQIDGDFM
modifications: Pyrenophora tritici-repentis
B5: 99 (protein, listed as Ralstonia solanacearum)
chain: MAIIDCHGHFTTAPTALEDWRKRQIANLATPALGPSPDDLKISDDALTEAIRANQLRLMQARGSDLTIFSPRASFMAHHIGDFHTSATWAAICNALCHRVSQLFPDHFVGAAMLPQSPGVDIRTCIPELARCIVDYGFVGVNLNPDPSGGHWTSPPLSDPYWFPLYEKLVEYDVPAMIHVSTSCNACFHTTGAHYLNADTTAFMQVLTSDLFRRFPTLKFVIPHGGGAVPYHWGRFRGLAQELKTPPLQEHLLHNVFFDTCVYHQPGIDLLTRVIPVDNILFASEMIGAVRGIDPETGHPFDDTRRYIDQAHTLSAEDRHKIYEGNARRVYPRLDARLKARGR
B6: 97 (protein, listed as Sphingobium sp.)
chain: MAMMIIDCHGHYTVLPKAHDEWREQQKAAFKAGQPAPPYPEISDDEIRETIEANQLRLIKERGADMTIFSPRASAMAPHVGDQSVAVPWAQACNNLIARVVDLFPETFAGVCMLPQSPEADMTSSIAELERCVNELGFIGCNLNPDPGGGHFKHPPLTDRFWYPFYEKMVELDVPAMIHVSGSCNPAMHATGAYYLAADTIAFMQLLQGNLFADFPTLRFIIPHGGGAVPYHWGRFRGLADMLKQPSLDTLLMNNVFFDTCVYHQPGINLLADVIDNKNILFGSEMVGAVRGIDPTTGHYFDDTKRYIDALDISDQERHAIFEGNTRRVFPRLDAKLKARGL
B7: 91 (protein, listed as Botryotinia fuckeliana)
chain: MASFVCNFGKAALATLLLTPSISAADYTPQETVLNSGRPTFYDASTSIPGKIALEEHVGNDLLNGLYTVPYYPNTNEPQYSDSVYIADVGEKMLDIPSRIANMDAANISISVLTFGGPGIQGVFNATYATYAAGYVNDYLYKNYKNNANYTGRFEFWCSNALQEPSKAATELERCVKELGGVGSFVGGYTNNGGINGTANDIVYLDDPSMEPFLEKVVELDVPIYLHPRMPAPSQLLSVKGYEFLGSSPWGFSSETGAHALRLMVSGTLDKYPTLKIVLGHCGEGLPFFLPRIDQRLRHFKKELFNNTLTMEEYWLRNFYVTTAGVQDAGTLVDTIKRTGEDRVMFSVDYPFEDTVEIAGWFDRLEMNTLTKTKLAYENAKALLKLTCYVDAEKRPRIFNKHHVDDIIKHTHSPCIWTLFH
B8: 96 (protein)
chain: MAPLIVDVHTHVYPPAYMQMLRSRKTVPYVHDPSNNRDPRLIILSSDDDASIPLDQRGRPVDSSYWDINVKLSFMRQHGINCSVISLANPWLDFVEPAEAQMWAERINDDLEKTCATVNKAADPGNTLTLDQKETLFAFGALPLSAPSSESVVAEIKRLKTLEHLRGVIMGTSGLGKGLDDARLDPVWEALQETDMLMFLHPHYGLPEEAYGGPETTGRYGHVLPLALGFPLETTIAVTRMLLSGVFDRFPRLKILLAHSGGTLPFLAGRIESCILHERKFISGGGDVQGPQRSVWDVLKTNIYLDAVVYGKPGLEAAMTASGSDRLLFGTDHPFFPPLDSKDNSWPSVTTNYQAIHATFDTNSKTVADVLGGNAARILNLK
modifications: Aspergillus nidulans
B9: 7 (protein, listed as Legionella pneumophila)
chain: MAIVDFETHFITEACIDYLTQRQEVPKLVPELNGAYTMCFTPDVSLFHTSALMEELLSLNEQRLAIMDQAGVTIQVLSLTTINGIDSCPGDENKSTALAREVNDQLYSAIQRHPERFKGFASISPYDVKEGVKELERAISQLGFVGWLTHSNFGEDNYLDDKTYWPLLEAAEGLNIPIYLHPNVPIMREFGKYGFALGGSALGFEFDTALCLMRMILGGVFDAFPKLKIMLGHLGETMPFLMERLDHLYRIPDLKAYRPSIQRIPSEVLRQNVYITTSGRFFVPALRYVLEVMGEDRVLFASDYPMESLLDATRFIQDSDLSNQTKQKIFSINAKNLNLI
B10: 94 (protein, listed as Bacillus thuringiensis)
chain: MANRGDSNMKSLVGVIMGSTSDWETMKYACDILDELNIPYEKKVVSAHRTPDYMFEYAETARERGLKVIIAGAGGAAHLPGMVAAKTNLPVIGVPVQSKALNGLDSLLSIVQMPGGVPVATVAIGKAGSTNAGLLAAQILGSFHDDIHDALELRREAIEKDVREGSELV

Assays:
[1] = 14C assay with IPTG-induced recombinant E. coli cells: 14CO2 captured from [14C]-carboxyl-labeled dicamba; settings: for Enzymatic Detection level: dicamba decarboxylation activity of the protein of the given SEQ ID NO, High / Low / No; for Dicamba Decarboxylase Activity: induced recombinant E. coli cells, [14C]-carboxyl-labeled dicamba, 14CO2 capture
[2] = Saturation mutagenesis of SEQ ID NO:109: dicamba decarboxylation activity of point mutants (carbon dioxide released); settings: decarboxylation activity (carbon dioxide released) of point mutant compared with unmutated backbone protein; backbone SEQ ID NO: 109

Molecule | Enzymatic Detection level [1] | Dicamba Decarboxylase Activity [1] | Fold Activity [2]
B1 | Low | Low | 1.6
B2 | No | No | 0.9
B3 | No | No | 2.3
B4 | Low | Low | 1.7
B5 | No | No | 1.7
B6 | No | No | 2.9
B7 | Low | Low | 1.6
B8 | No | No | 1.1
B9 | No | No | 1.3
B10 | No | No | 1.5
